# Test results taken from US20070016969.
# Target: hirudin in milk of BC1-GB-Hir transgenic mice (UniProt P01050)
# Sequence (P01050 whole entry): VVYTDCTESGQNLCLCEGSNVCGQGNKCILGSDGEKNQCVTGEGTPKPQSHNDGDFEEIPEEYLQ
substance,measurement,value
"thrombin (thrombin solution, 50 U/ml)","anti-coagulation activity (chromogenic thrombin substrate Tos-Gly-Pro-Arg-4-NA, A405)",milk collected from lactating transgenic mice of the invention has a high level of anti-coagulation activity in comparison with that from non-transgenic mice (normal mouse milk)
